According to publication PMC2661964, “Mammalian Kinesin-3 Motors Are Dimeric In Vivo and Move by Processive Motility upon Release of Autoinhibition” (PLoS Biology, 2009):

Tests used:
[1] = biological target: the molecule itself; assay: cross-linking; cytosolic extracts of rat brain and detergent extracts of murine cortical neurons, with or without DMP; SDS-PAGE, immunoblot with anti-KIF1A
[2] = biological target: the molecule itself; assay: stepwise photobleaching of single molecules (TIRF microscopy); lysates of COS cells expressing 3xmCit-tagged constructs, in flow chambers with Cy5-microtubules, with AMPPNP; number of bleaching steps of 160–200 spots for each construct

B1: endogenous KIF1A in rat brain cytosol (natural protein, rat (endogenous in rat brain), UniProt F1M4A4 1-1707, looked up)
chain: MAGASVKVAVRVRPFNSREMSRDSKCIIQMSGSTTTIVNPKQPKETPKSFSFDYSYWSHTSPEDINYASQKQVYRDIGEEMLQHAFEGYNVCIFAYGQTGAGKSYTMMGKQEKDQQGIIPQLCEDLFSRINDTTNDNMSYSVEVSYMEIYCERVRDLLNPKNKGNLRVREHPLLGPYVEDLSKLAVTSYNDIQDLMDSGNKARTVAATNMNETSSRSHAVFNIIFTQKRHDAETNITTEKVSKISLVDLAGSERADSTGAKGTRLKEGANINKSLTTLGKVISALAEMDSGPNKNKKKKKTDFIPYRDSVLTWLLRENLGGNSRTAMVAALSPADINYDETLSTLRYADRAKQIRCNAIINEDPNNKLIRELKDEVTRLRDLLYAQGLGDITDTNTVPGGPKLTNALVGMSPSSSLSALSSRAASVSSLHERILFAPGSEEAIERLKETEKIIAELNETWEEKLRRTEAIRMEREALLAEMGVAMREDGGTLGVFSPKKTPHLVNLNEDPLMSECLLYYIKDGVTRVGREDAERRQDIVLSGHFIKEEHCIFRSDSRGGGEAVVTLEPCEGADTYVNGKKVTEPSILRSGNRIIMGKSHVFRFNHPEQARQERERTPCAETPAEPVDWAFAQRELLEKQGIDMKQEMEQRLQELEDQYRREREEATYLLEQQRLDYESKLEALQKQMDSRYYPEVNEEEEEPEDEVQWTERECELALWAFRKWKWYQFTSLRDLLWGNAIFLKEANAISVELKKKVQFQFVLLTDTLYSPLPPDLLPPEAAKDRETRPFPRTIVAVEVQDQKNGATHYWTLEKLRQRLDLMREMYDRAAEVPSSVVEDCDNVVTGGDPFYDRFPWFRLVGRAFVYLSNLLYPVPLVHRVAIVSEKGEVKGFLRVAVQAISADEEAPDYGSGVRQSGTAKISFDDQHFEKFQSESCPVVGMSRSGTSQEELRIVEGQGQGADAGPSADEVNNNTCSAVPPEGLLDSPEKAALDGPLDTALDHLRLGSTFTFRVTVLQASSISAEYADIFCQFNFIHRHDEAFSTEPLKNTGRGPPLGFYHVQNIAVEVTKSFIEYIKSQPIVFEVFGHYQQHPFPPLCKDVLSPLRPSRRHFPRVMPLSKPVPATKLSTMTRPSPGPCHCKYDLLVYFEICELEANGDYIPAVVDHRGGMPCMGTFLLHQGIQRRITVTLLHETGSHIRWKEVRELVVGRIRNTPETDEALIDPNILSLNILSSGYVHPAQDDRQFLDSDIPRTFYQFEAAWDSSMHNSLLLNRVTPYREKIYMTLSAYIEMENCTQPAVITKDFCMVFYSRDAKLPASRSIRNLFGSGSLRATEGNRVTGVYELSLCHVADAGSPGMQRRRRRVLDTSVAYVRGEENLAGWRPRSDSLILDHQWELEKLSLLQEVEKTRHYLLLREKLETTQRPVPEVLSPASSEDSESRSSSGASSPLSAEGQPSPLEVPNERQRELAVKCLRLLMHTFNREYTHSHVCISASESKLSEMSVTLMRDPSMSPLGAATLTPSSTCPSLIEGRYGATDVRTPQPCSRPASPEPELLPELDSKKTPSPVRATETEKEPQRLLVPDIQEIRVSPIVSKKGYLHFLEPHTAGWAKRFVVVRRPYAYMYNSDKDTVERFVLNLSTAQVEYSEDQQAMLKTPNTFAVCTEHRGILLQANSDKDMHDWLYAFNPLLAGTIRSKLSRRRSAQMRV
notes: KIF1A, endogenous protein of rat brain cytosol; source: endogenous, cytosolic extract of rat brain
stoichiometry N [1]: 2

B2: KIF1A(1–393)-3xmCit (domain or fragment, rat, UniProt F1M4A4 1-393, looked up)
chain: MAGASVKVAVRVRPFNSREMSRDSKCIIQMSGSTTTIVNPKQPKETPKSFSFDYSYWSHTSPEDINYASQKQVYRDIGEEMLQHAFEGYNVCIFAYGQTGAGKSYTMMGKQEKDQQGIIPQLCEDLFSRINDTTNDNMSYSVEVSYMEIYCERVRDLLNPKNKGNLRVREHPLLGPYVEDLSKLAVTSYNDIQDLMDSGNKARTVAATNMNETSSRSHAVFNIIFTQKRHDAETNITTEKVSKISLVDLAGSERADSTGAKGTRLKEGANINKSLTTLGKVISALAEMDSGPNKNKKKKKTDFIPYRDSVLTWLLRENLGGNSRTAMVAALSPADINYDETLSTLRYADRAKQIRCNAIINEDPNNKLIRELKDEVTRLRDLLYAQGLGDITD
notes: source: COS cells, transfected, in lysate
stoichiometry N [2]: 2

B3: KIF1A(1–726)-3xmCit (domain or fragment, rat, UniProt F1M4A4 1-726, looked up)
chain: MAGASVKVAVRVRPFNSREMSRDSKCIIQMSGSTTTIVNPKQPKETPKSFSFDYSYWSHTSPEDINYASQKQVYRDIGEEMLQHAFEGYNVCIFAYGQTGAGKSYTMMGKQEKDQQGIIPQLCEDLFSRINDTTNDNMSYSVEVSYMEIYCERVRDLLNPKNKGNLRVREHPLLGPYVEDLSKLAVTSYNDIQDLMDSGNKARTVAATNMNETSSRSHAVFNIIFTQKRHDAETNITTEKVSKISLVDLAGSERADSTGAKGTRLKEGANINKSLTTLGKVISALAEMDSGPNKNKKKKKTDFIPYRDSVLTWLLRENLGGNSRTAMVAALSPADINYDETLSTLRYADRAKQIRCNAIINEDPNNKLIRELKDEVTRLRDLLYAQGLGDITDTNTVPGGPKLTNALVGMSPSSSLSALSSRAASVSSLHERILFAPGSEEAIERLKETEKIIAELNETWEEKLRRTEAIRMEREALLAEMGVAMREDGGTLGVFSPKKTPHLVNLNEDPLMSECLLYYIKDGVTRVGREDAERRQDIVLSGHFIKEEHCIFRSDSRGGGEAVVTLEPCEGADTYVNGKKVTEPSILRSGNRIIMGKSHVFRFNHPEQARQERERTPCAETPAEPVDWAFAQRELLEKQGIDMKQEMEQRLQELEDQYRREREEATYLLEQQRLDYESKLEALQKQMDSRYYPEVNEEEEEPEDEVQWTERECELALWAFRKWKWY
notes: as for B2
stoichiometry N [2]: 2

B4: endogenous KIF1A in murine cortical neurons (natural protein, UniProt P33173 1-1695, looked up)
chain: MAGASVKVAVRVRPFNSREMSRDSKCIIQMSGSTTTIVNPKQPKETPKSFSFDYSYWSHTSPEDINYASQKQVYRDIGEEMLQHAFEGYNVCIFAYGQTGAGKSYTMMGKQEKDQQGIIPQLCEDLFSRINDTTNDNMSYSVEVSYMEIYCERVRDLLNPKNKGNLRVREHPLLGPYVEDLSKLAVTSYNDIQDLMDSGNKPRTVAATNMNETSSRSHAVFNIIFTQKRHDAETNITTEKVSKISLVDLAGSERADSTGAKGTRLKEGANINKSLTTLGKVISALAEMDSGPNKNKKKKKTDFIPYRDSVLTWLLRENLGGNSRTAMVAALSPADINYDETLSTLRYADRAKQIRCNAIINEDPNNKLIRELKDEVTRLRDLLYAQGLGDITDMTNALVGMSPSSSLSALSSRAASVSSLHERILFAPGSEEAIERLKETEKIIAELNETWEEKLRRTEAIRMEREALLAEMGVAMREDGGTLGVFSPKKTPHLVNLNEDPLMSECLLYYIKDGVTRVGREDAERRQDIVLSGHFIKEEHCIFRSDSRGGGEAVVTLEPCEGADTYVNGKKVTEPSILRSGNRIIMGKSHVFRFNHPEQARQERERTPCAETPAEPVDWAFAQRELLEKQGIDMKQEMEQRLQELEDQYRREREEATYLLEQQRLDYESKLEALQKQMDSRYYPEVNEEEEEPEDEVQWTERECELALWAFRKWKWYQFTSLRDLLWGNAIFLKEANAISVELKKKVQFQFVLLTDTLYSPLPPDLLPPEAAKDRETRPFPRTIVAVEVQDQKNGATHYWTLEKLRQRLDLMREMYDRAAEVPSSVVEDCDNVVTGGDPFYDRFPWFRLVGRAFVYLSNLLYPVPLVHRVAIVSEKGEVKGFLRVAVQAISADEEAPDYGSGVRQSGTAKISFDDQHFEKFQSESCPVVGMSRSGTSQEELRIVEGQGQGADAGPSADEVNNNTCSAVPPEGLMDSPEKAALDGPLDTALDHLRLGSTFTFRVTVLQASSISAEYADIFCQFNFIHRHDEAFSTEPLKNTGRGPPLGFYHVQNIAVEVTKSFIEYIKSQPIVFEVFGHYQQHPFPPLCKDVLSPLRPSRRHFPRVMPLSKPVPATKLSTMTRPSPGPCHCKYDLLVYFEICELEANGDYIPAVVDHRGACMGTFLLHQGIQRRITVTLLHETGSHIRWKEVRELVVGRIRNTPETDEALIDPNILSLNILSSGYVHPAQDDRVFFGNDTRTFYQFEAAWDSSMHNSLLLNRVTPYREKIYMTLSAYIEMENCTQPAVITKDFCMVFYSRDAKLPASRSIRNLFGSGSLRATEGNRVTGVYELSLCHVADAGSPGMQRRRRRVLDTSVAYVRGEENLAGWRPRSDSLILDHQWELEKLSLLQEVEKTRHYLLLREKLETTQRPGPEVLSPASSEDSESRSSSGASSPLSAEGQPSPLEAPNERQRELAVKCLRLLMHTFNREYTHSHVCISASESKLSEMSVTLMRDPSMSPLGAATLTPSSTCPSLIEGRYGATDVRTPQPCSRPASPEPELLPELDSKKTPSPVRATETEKEPQRLLVPDIQEIRVSPIVSKKGYLHFLEPHTAGWAKRFVVVRRPYAYMYNSDKDTVERFVLNLSTAQVEYSEDQQAMLKTPNTFAVCTEHRGILLQANSDKDMHDWLYAFNPLLAGTIRSKLSRRRSAQMRV
notes: KIF1A, endogenous protein of murine cortical neurons; source: endogenous, detergent extract of murine cortical neurons
stoichiometry N [1]: 2
